Results from IntAct's records for PubMed 18188153.

B1: Glutamate receptor 4 (Rattus norvegicus (Rat)), P19493 (parent)
chain: MRIICRQIVLLFSGFWGLAMGAFPSSVQIGGLFIRNTDQEYTAFRLAIFLHNTSPNASEAPFNLVPHVDNIETANSFAVTNAFCSQYSRGVFAIFGLYDKRSVHTLTSFCSALHISLITPSFPTEGESQFVLQLRPSLRGALLSLLDHYEWNCFVFLYDTDRGYSILQAIMEKAGQNGWHVSAICVENFNDVSYRQLLEELDRRQEKKFVIDCEIERLQNILEQIVSVGKHVKGYHYIIANLGFKDISLERFIHGGANVTGFQLVDFNTPMVTKLMDRWKKLDQREYPGSETPPKYTSALTYDGVLVMAETFRSLRRQKIDISRRGNAGDCLANPAAPWGQGIDMERTLKQVRIQGLTGNVQFDHYGRRVNYTMDVFELKSTGPRKVGYWNDMDKLVLIQDMPTLGNDTAAIENRTVVVTTIMESPYVMYKKNHEMFEGNDKYEGYCVDLASEIAKHIGIKYKIAIVPDGKYGARDADTKIWNGMVGELVYGKAEIAIAPLTITLVREEVIDFSKPFMSLGISIMIKKPQKSKPGVFSFLDPLAYEIWMCIVFAYIGVSVVLFLVSRFSPYEWHTEEPEDGKEGPSDQPPNEFGIFNSLWFSLGAFMQQGCDISPRSLSGRIVGGVWWFFTLIIISSYTANLAAFLTVERMVSPIESAEDLAKQTEIAYGTLDSGSTKEFFRRSKIAVYEKMWTYMRSAEPSVFTRTTAEGVARVRKSKGKFAFLLESTMNEYTEQRKPCDTMKVGGNLDSKGYGVATPKGSSLGNAVNLAVLKLNEQGLLDKLKNKWWYDKGECGSGGGDSKDKTSALSLSNVAGVFYILVGGLGLAMLVALIEFCYKSRAEAKRMKLTFSEATRNKARLSITGSVGENGRVLTPDCPKAVHTGTAIRQSSGLAVIASDLP

Variants of: B1
Details: with mk08_rat Mapk8, P49185
Chain of mk08_rat Mapk8, P49185 (P49185 whole entry): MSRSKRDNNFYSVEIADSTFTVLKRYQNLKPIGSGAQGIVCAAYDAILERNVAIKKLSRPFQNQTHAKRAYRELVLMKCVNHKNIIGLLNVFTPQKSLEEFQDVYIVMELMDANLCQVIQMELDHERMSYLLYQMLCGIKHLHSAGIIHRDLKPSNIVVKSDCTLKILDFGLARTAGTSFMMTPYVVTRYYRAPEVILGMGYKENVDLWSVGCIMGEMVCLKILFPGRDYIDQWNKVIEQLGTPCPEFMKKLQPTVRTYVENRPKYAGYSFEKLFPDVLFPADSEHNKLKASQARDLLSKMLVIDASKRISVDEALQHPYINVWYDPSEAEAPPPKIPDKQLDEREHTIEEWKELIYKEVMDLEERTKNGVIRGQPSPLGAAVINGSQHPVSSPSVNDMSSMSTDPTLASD

Row | Variant | effect of a mutation on the interaction
1 | T855A | disrupting interaction
